Earlier results on two compounds are cited in patent US20180022822A1, “NOVEL ANTI-FIBROBLAST ACTIVATION PROTEIN (FAP) BINDING AGENTS AND USES THEREOF” (Mabimmune Diagnostics AG, priority 2016, published 2018).

The conditions of data set [1]: pH 7.8.
The conditions of data set [2]: in vivo.

In the case of `CC(C)[C@H](N)C(=O)N1CCC[C@H]1B(O)O` [Talabostat, Val-boroPro], the “stability of inhibitory activity” value in data set [1] was “rapidly loses inhibitory activity”.
Take “Sibrotuzumab: humanized version of the F19 antibody that specifically binds to human FAP”: the “patients with change in pharmacokinetics and reduced tumor uptake” value in data set [2] (human) is 4 of 26. In addition, in data set [2], the “patients who developed human-anti-human antibodies (HAHA)” value is given as 8 of 26.
